Data set [1] deals with T1, BcUGAepi (UDP-glucuronic acid 4-epimerase) (Bacillus cereus group, UniProt Z9OZ01HDE8).
T1 construct: C-terminal Strep-tag kept; synthetic gene in pET17b; expressed in E. coli Lemo21(DE3); monomer 37003 g/mol
Briefly: HPLC of cofactor released from denatured enzyme. Type of data set: binding.

Data set [2] has as its target UDP-glucuronic acid 4-epimerase from Bacillus cereus HuA2-4 (Bacillus cereus HuA2-4). Briefly: SEC; gel filtration of the isolated protein (HiLoad 16/60 Superdex 200, calibrated with a gel filtration standard mixture); details in the Supporting information. Background: In gel filtration, larger molecules generally elute earlier.
The test system of data set [3] is BcUGAepi (UDP-glucuronic acid 4-epimerase). The note with it: tightly bound cofactor of the isolated enzyme.
Data set [4] shares this test system. To be noted: 1 mM UDP-GlcA; 135 µM enzyme; 100 µM NAD+; pH 7.6; 23 °C.
The subject of data set [5] is O=C(O)[C@H]1O[C@H](OP(=O)(O)OP(=O)(O)OC[C@H]2O[C@@H](n3ccc(=O)[nH]c3=O)[C@H](O)[C@@H]2O)[C@H](O)[C@@H](O)[C@@H]1O. As to the kind of experiment: purified protein. The note with it: forward epimerization, 50 µM NAD+, 50 mM sodium phosphate, 100 mM NaCl, pH 7.6, room temperature (23 °C).
Data set [6] deals with O=C(O)[C@H]1O[C@H](OP(=O)(O)OP(=O)(O)OC[C@H]2O[C@@H](n3ccc(=O)[nH]c3=O)[C@H](O)[C@@H]2O)[C@H](O)[C@@H](O)[C@H]1O. As to the kind of experiment: purified protein. To be noted: reverse epimerization, 50 µM NAD+, 50 mM sodium phosphate, 100 mM NaCl, pH 7.6, room temperature (23 °C).
The target in the next data set is Tyr149 (UniProt position 149, TPQSPYGKSKL). Briefly: kinetics. The note with it: cited from earlier work.
The target of another data set is Tyr149 (position 149, …). Briefly: kinetics. To be noted: 23 °C, 50 mM Na2HPO4, 100 mM NaCl, pH adjusted with NaOH or HCl, Enzyme-NAD+ with saturating UDP-GlcA (1 mM) and 100 µM added NAD+. The kcat profile reports on the enzyme/NAD+/UDP-GlcA complex.

The values that follow come from article PMC7984243, “Mechanistic characterization of UDP‐glucuronic acid 4‐epimerase” (The Febs Journal, 2020).

What is called stoichiometry N is a count of units in the complex or per binding partner. The Km is the concentration of substrate that gives half-maximal velocity. As usually defined, the kcat is the number of substrate molecules converted per active site and unit of time at saturation. Broadly, the pKa is the negative logarithm of the acid dissociation constant.

Consider `NC(=O)C1=CN([C@@H]2O[C@H](COP(=O)(O)OP(=O)(O)OC[C@H]3O[C@@H](n4cnc5c(N)ncnc54)[C@H](O)[C@@H]3O)[C@@H](O)[C@H]2O)C=CC1` [NADH], for which the “HPLC of cofactor released from denatured enzyme” value in data set [1] (minor co-purified reduced form of the bound cofactor) is on record as “NADH was also present, the content varying slightly”.

On to “UDP-glucuronic acid 4-epimerase from Bacillus cereus HuA2-4 (enzyme)”, for which, in data set [2], the stoichiometry N worked out at 2.

Regarding `NC(=O)c1ccc[n+]([C@@H]2O[C@H](COP(=O)(O)OP(=O)(O)OC[C@H]3O[C@@H](n4cnc5c(N)ncnc54)[C@H](O)[C@@H]3O)[C@@H](O)[C@H]2O)c1` [NAD^+], the “HPLC of cofactor released from denatured enzyme” value in data set [1] (co-purified, tightly bound, one per subunit) was “we identified the cofactor as NAD, not NADP”. The co-purified cofactor result in data set [3] is “The purified Y149F variant (Fig. S19) contained protein‐bound NAD^+ as the wild‐type enzyme”.

As to `O=C(O)[C@H]1O[C@H](OP(=O)(O)OP(=O)(O)OC[C@H]2O[C@@H](n3ccc(=O)[nH]c3=O)[C@H](O)[C@@H]2O)[C@H](O)[C@@H](O)[C@@H]1O` [UDP-GlcA], the “HPLC time course of conversion” value in data set [4] is recorded as “the Y149F variant converted UDP‐GlcA into UDP‐GalA without trace formation of side products”.

With “BcUGAepi (UDP-glucuronic acid 4-epimerase) (Bacillus cereus group)”, in data set [5], the Km came out at 360 ± 20 µM and the kcat stood at 0.25 ± 0.01 s⁻¹. Moreover, in data set [6], the Michaelis constant (Km) was found to be 890 ± 130 µM and the kcat came out at 0.32 ± 0.02 s⁻¹.

Consider “UDP-galactose 4-epimerase (GALE) (Escherichia coli)”, for which the pKa in the data set with Tyr149 is 6.9.

B1: UDP-glucuronic acid 4-epimerase (BcUGAepi) (Bacillus cereus HuA2-4) (protein)
chain: MKILVTGAAGFIGSHLCQALLKNSAYHVVGIDHFIGPTPATLKTGNIQSLELNSRFQFIREDILNTDLSKLLQDIDVVYHLAAIPGVRTSWGKDFQPYVTNNIMVTQQLLEACKHIKLDKFIHISTSSVYGEKSGAVSEDLLPIPLSPYGVTKLSGEHLCHVYHKNFHIPIVILRYFTVYGPRQRPDMAFHRLIKQMLEDKPLTIFGDGTQTRDFTYIDDCIRGTVAALETKKNIIGEVINIGGKEQASILDIISMLEKISGKSATKNFLKSVPGEPKQTWADISKASTLLQYSPTVSLSDGLEAEYDYIKQLYKGDAAWSHPQFEK
With B1, in the data set with Tyr149 (position 149, …), the pKa is 5.90 (±0.05).
